From the nanobody polyreactivity screen of Harvey et al. (2022) come the findings set out here.

The nature of this data set: yeast display, Sf9 membrane polyspecificity reagent, FACS + sequencing; frameworks hold sequencing errors. A digest of the protocol: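 Polyreactivity labels are assigned by the sorting gate from which each nanobody was recovered. The gates were low and high (top ~1%), set on anti-HA fluorescence for expression and streptavidin fluorescence for reagent binding. Before sorting, galactose-induced (36–48 hours) yeast display cells were stained for 1 hour at 4 °C with 10% biotinylated, detergent-solubilized Sf9 membrane reagent.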
Regarding “QVQLVESGGALVLAGGSLRLSCAASGFTFQYYAMGWYRQAPGKERELVAAIDWTGGSTYYADSVKGRFTISRDNAKNTVYLQMNSLKPEDTAVYFCNRELTSPRRWHVSRAYDYWGQGTQVTVSS”, the “polyreactivity (PSR sort gate)” value was “low polyreactivity”.

Take “QVQLVESVGGLVQAGGSLRLSCAASGSNFPPYAMGWYRQAPGKERELVAAITSTDSTDYADSVKGRFTISRDNAKNTVYLQMNSLKPEDTAVYYCAAATGTYGRGGYYWGQGTQVTVSS”: the “polyreactivity (PSR sort gate)” value was “high polyreactivity”.

Regarding “QVQLVESGGGLVQAGGSLRLSCAASGRIFGYYAMGWYRQAPGKERELVARIRRRGGSTYYADSVKGRFTISRDNAKNTVYLQMNSLKPEDTAVYYCAAVYYPLVGKRYYYWGQGTQVTVSS”, the “polyreactivity (PSR sort gate)” value is “high polyreactivity”. To “QVQLVESGGGLVQAGGSLRLSCAASGSIFDLNVMGWYRQAPGKERELVAAITWSGGSTYYADSVKGRFTISRDNAKNTVYLQMNSLKPEDTAVDYCAADTASGDTLRPTLLYDYWGQGTQVTVSS” belongs “low polyreactivity”; to “QVQLVESGGGLVQAGGSLRLSCAASGRTFVVNAMGWYRQAPGKERELVATIRWSGGRTYYADSVKGRFTISRDNAKNTVYLQMNSLKPEDTAVYYCAADFKGLFSSELDYWGQGTQVTVSS”, “low polyreactivity”. To “QVQLVESGGGLVQAGGSLRLSCAASGSTFYPNAKGWYRQAPGKDREFVAASSTSAGRTYYADSVKGRFTISRDNAKKTVYLQINSLKPEDTAVYYCNARYWVYYVYEYDSWGQGTQVTVSS” belongs “low polyreactivity”.

For “QVQLVESGGGLVQAGGSLRLSCAASGSTFWFYAMGWYRQAPGKERELVAVISNSGSTYYADSVKGRFTISRDNAKNTVYLQMNSLKPEDTAVYYCNKDGGGDSYWYDYWGQATQVTVSS”, the “polyreactivity (PSR sort gate)” value is recorded as “low polyreactivity”.

For “QVQLVESGGGLVQAGGSLRLSCAASGSTFGVNTMGWYRQAPGKERELVAAITSRGGSTYYADSVKGRFTISRDNAKNTVYLQMNSLKPEDTAVYYCAAEASYYRIRRYYWGQGTQVTVSS”, the “polyreactivity (PSR sort gate)” value is given as “high polyreactivity”. Consider “QVQLVESGGGLVQAGGSLRLSCAASGRTLYLYAMGWYRQAPGKERELVAAIDWRGTSTYYADSVKGRFTISRDNAKNTVYLQMNSLKPEDTAVYYCNAEGRWSSFTQRMDYWGQGTQVTVSS”, for which the “polyreactivity (PSR sort gate)” value is listed as “low polyreactivity”. “QVQLVESGGGLVQAGGSLRLSCAASGRIFWYYAMGWYRQAPGKERELVAAITRSGASTYYADSVKGRFTISRDNAKNTVYLQMNSLKPEDTAVYYCAARGRWNVPARRDYWGQGTQVTVSS”: the “polyreactivity (PSR sort gate)” value is on record as “high polyreactivity”. In the case of “QVQLVESGGGLVQAGGSLRLSCAASGLTFEVYAMGWYRQAPGKERELVAAISSGGGSTYYADSVKGRFTISRDNAKYTVYLQMNSLKPEDSAVYYCNAVAKLYYWRYDYWGQGTQVTVSS”, the “polyreactivity (PSR sort gate)” value is “low polyreactivity”.

Regarding “QVQLVESGGGLVQAGGSHRLRCAASGRIFHVYAMGWYRQAPGKERELVAAISSGDRTYYADSVKGRFIISRDNAKNTVYLQMISLKPEDTAVYYCWRYPADESNYWGQGTQVTVSS”, the “polyreactivity (PSR sort gate)” value is listed as “low polyreactivity”.

As to “QVQLQESGGGQVQAGGSLRLSCAASGTIFLYAFMAWYRQAPGKEPKLVAAIDVGTTTKYADSVKGRFTISRDNAKNTVYLQMNSLKPEDTAVYYCAAYLCYLDDLGYWGQGTQVTVSS”, the “polyreactivity (PSR sort gate)” value was “low polyreactivity”. Turning to “QVQLVESGGGLVQAGGSLRLSCAASGRTFYFNAMGWYRQAPGKERELVAGISGDGSTNYADSVKGRFTISRDNAKNTVYLQMNSLKPEDTAVYYCAARIRPGYRTWYYSWGQGTQVTVSS”, the “polyreactivity (PSR sort gate)” value is on record as “low polyreactivity”. On to “QVQLVESGGGLVQAGGSLRLSCAASGSIFTRNAMGWYRPAPGKERELVAAIRWNGGRTYYADSVKGRFTISRDNAKNTVYLQMNSLKPEDTAVYYCAADYYQRRYVPEYDYWGQGTQVTVSS”, for which the “polyreactivity (PSR sort gate)” value was “low polyreactivity”.

“QVQLVESGGGLVQAGGTLRLSCAASGSTFKSNAMGWYRQEPGKERELVAAINRSGAGTYYADSVKGRFTISRDNAKNTVYLQMNSLKPEDTAVYYCAAQSYSRRYDYWGQGTQVTVSS”: the “polyreactivity (PSR sort gate)” value was “high polyreactivity”. Take “QVQLLESGGGLVQAGGSLRLSCAASGSILIKYAMGWYRQAPGKERELVATITSGGSTYYADSVKGRFTISRDNAKNTVYLQMNSLKPEDTAVYYCATGQYYYYGIVAFFELDYWGQGTQVTVSS”: the “polyreactivity (PSR sort gate)” value was “low polyreactivity”.

“QVQLVESGGGLFQEGGSLRLICAASGFTFSGYAMGWYRQAPGKERELVDAISSSGGSTYYADSVKGRFTISRDNAKNTVYLQMNSLKPEDTAVYYCYDRSRYYPGYSRFFYWGQGTQVTVSS”: the “polyreactivity (PSR sort gate)” value is “high polyreactivity”.

As to “QVQLVESGGGLVQAGGSLRLSSAASGRIFVGYAKGWYIQAPGKERELVAGIRYSGGSTYYADSVKGRFTISRDNAKNTVYLQMNSLKPEDTAVYYCATQVWHYAGRPNYKYDYWGQGTQVTVSS”, the “polyreactivity (PSR sort gate)” value is recorded as “low polyreactivity”. For the sequence “QVQLVESGGGLVQAGGSLRLSCAASGSIFYRYAMGWYRPAPGKERELVAAISSTGSTYYADSVKGRFTISRDNAKNTVYLQMNSLKPEDTAVYYCAARQGFRSYRRYDYWGQGTQVTVSS”, the “polyreactivity (PSR sort gate)” value was “high polyreactivity”. For the sequence “QVQVVESGGGLVKAGGSLRLSCAASGGTFGNYAMGWYRQAPRKERELVAAINRSDGGTYYADSVKGRFTISRDNAKNTVYLQMNSLKPEDTAVYYCNAVDFYYDEPYDYWGQGTQVTVSS”, the “polyreactivity (PSR sort gate)” value was “low polyreactivity”.

“QVQLVESGGGLVQAGGSLRLSCAASGSTFGGYAMGWYRQAPGKEREFVAAITKRGGRTYYADSVKGRFTISRDNAKNTVYLQMNSLKPEDTAVYYCATRGINYAEYDYWGQGTQVTVSS”: the “polyreactivity (PSR sort gate)” value is “high polyreactivity”. Regarding “QVQLVESGGGLVQAGGSLRLSCAASGSTLGRNAMVWYRQAPGKERELVAAITTSGGSTYYADSVKGRFTISRDNAKNTVYLQMNSLKPEDTAVYYCAARTGYRNYGYWGQGSQVTVSS”, the “polyreactivity (PSR sort gate)” value is “high polyreactivity”. To “QVQLVESGGGLVQAGGRLSLSCAASGRTFYRYAMGWYRQAPGKDRELVAAISTRGGTTYYADSVKGRFTFSRDNAKNSVYLQMNSLKPEDTAVYYCAADSVYAEYDSWGQGTQVTVSS” belongs “low polyreactivity”; to “QVQLVESGGGLVQAGGSLRLSCAASGRIFAYYAMGWYRQAPGKERELVAAISRGGGSTSYADSVKGRFTISRDNAKNTFYLQMNSLKPEDTAVYYCAKDRGYRYLGDYWGQGTQVTVSS”, “low polyreactivity”; to “QVQLVESGGVLVQAGGSLRLSCAASGSTFKPYAMGWYRQAPGKEREFVAANSRGTRTYADSVKGRFTISRDNAKNTVSLPMNSLKPEDTAVYYCAAEWSWIFGYHYEYDYGGQGTQVTVSS”, “low polyreactivity”.

“QVQLVESGGGLVQAGGSLRLSCAASGRIFKGNGMGWYRQAPGKERELVAAISRSGGNTYYADSVKGRFTISRDNAKNTVYLQMNSLKPEDTAVYYCNVRYYTYRFLRFDYWGQGTQVTVSS”: the “polyreactivity (PSR sort gate)” value is “high polyreactivity”.

Take “QVQLVESGGGLVQAGGSLRLSCAASGRTFLNNAMGWYRQAPGKERELVAAITKSGGSTYYADSVKGRFTISRDNAKNTVYLQMNSLKPEDTAVYYCAAARRYYTYYREDYYYWGQGTQVTVSS”: the “polyreactivity (PSR sort gate)” value is “high polyreactivity”.

On to “QLQLVESGGGLVQAGGSLRLSCAASGSLFYVYAMGWYRAATGKERELVAAISDDGDTYYADSVKGRFTISRDHEKNTVYLQMNSLKPEDTEVYFCAAEGGANEENSSPEYDYWGLGTQVTVSS”, for which the “polyreactivity (PSR sort gate)” value is “low polyreactivity”. Regarding “QVQLVESGGGLVQAGGSLRLSCAASGFIFRVYAMGWYRQAPGKERELVAAITRNGGSTYYADSVKGRFTISRDNAKNTVYLQMNSLKPEDTAVYYCATVYSFGQNRDYWGQGTQVTVSS”, the “polyreactivity (PSR sort gate)” value is “high polyreactivity”.
